Results reported in article PMC5888754.
Changes are numbered by the printed parent chain. Read-outs that look alike come from different tables or passages of the source.

Experiments:
CYV-VP3 (Culex Y virus) = assay: competition
DCV-1A [1] = target: T1, DCV-1A (Drosophila C virus, UniProt O36966 1-97); assay: single-molecule TIRF
T1 sequence: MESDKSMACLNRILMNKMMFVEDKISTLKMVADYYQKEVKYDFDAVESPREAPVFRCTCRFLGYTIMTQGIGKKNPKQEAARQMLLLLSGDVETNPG

DCV-1A [2] = target: T1, DCV-1A; assay: single-molecule TIRF; remark: listed apart in the source
DXV-VP3 = target: T2, DXV-VP3 (Drosophila X virus, UniProt Q96724 724-1032); assay: single-molecule TIRF
T2 sequence: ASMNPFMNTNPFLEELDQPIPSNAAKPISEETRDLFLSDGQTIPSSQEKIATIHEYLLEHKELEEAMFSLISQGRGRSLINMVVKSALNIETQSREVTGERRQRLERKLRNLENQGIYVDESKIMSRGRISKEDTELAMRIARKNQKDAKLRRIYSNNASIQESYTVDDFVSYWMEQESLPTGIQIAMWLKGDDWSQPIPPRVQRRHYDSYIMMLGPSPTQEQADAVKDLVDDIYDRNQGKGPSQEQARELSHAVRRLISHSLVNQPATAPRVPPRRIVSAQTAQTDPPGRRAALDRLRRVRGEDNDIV

DCV-1A [3] = target: T1, DCV-1A; assay: single-molecule TIRF; remark: listed apart in the source
Dcr-2;Loqs-PD (LqPD) = Dcr-2;Loqs-PD (LqPD) (Drosophila melanogaster?;Drosophila …, UniProt A1ZAW0;Q9VJY9-4 1-1722;1-359, |); assay: single-molecule TIRF

Molecule: GGCAAUGAAAGAUCGCGGGUCUGCUCAAACACUCCGUUAUGUAGCAUUCCUUGAUCGUGAGAUUCUUCUU / AAGAAGAAUCUCACGAUCAAGGAAUGCUACAUAACGGAGUGUUUGAGCAGACCCGCGAUCUUUCAUUGCC [70-nt dsRNA blunt end]
- binding signal (CYV-VP3 (Culex Y virus)): 80 % inhibition

B1: pre-let-7a-1 (2 mismatches) (structured_RNA)
RNA: UGAGGUAGUAGGUUGUAUAGUUUUAGGGUCACACCCACCACUGGGAGAUAACUAUACAAUCUACUGUCUUUCU
- binding result (DCV-1A [1]): binds

B2: pre-miRNA (no mismatches) (structured_RNA)
RNA: B1 RNA with G5A, U6C
- binding result (DCV-1A [2]): binds

B3: 50-nt dsRNA (structured_RNA)
RNA: GGGACCUCAUCCAACAUAUCAAACUCCAUCAUCCAACAUAUCAAACUCCAGUCGAGUGGAGUUUGAUAUGUUGGAUGAUGGAGUUUGAUAUGUUGGAUGAGGUCCCAA
- binding result (DXV-VP3): binds
- binding result (DCV-1A [3]): binds

B4: 70-nt dsRNA blunt end (dsRNA)
RNA 1: GGCAAUGAAAGAUCGCGGGUCUGCUCAAACACUCCGUUAUGUAGCAUUCCUUGAUCGUGAGAUUCUUCUU
RNA 2: AAGAAGAAUCUCACGAUCAAGGAAUGCUACAUAACGGAGUGUUUGAGCAGACCCGCGAUCUUUCAUUGCC
- binding result (Dcr-2;Loqs-PD (LqPD)): binds
